Reference: patent US8273710B2, “Protein hydrolysate enriched in peptides inhibiting DPP-IV and their use” (Campina Nederland Holding B.V., priority 2004, dated 2012)

What follows are compounds tested against T1, DPP-IV (Sus scrofa, UniProt P22411) (assay: not given). Conditions: additional peptides.
From the text: About 40 protein hydrolysates were subjected to on-line liquid chromatography (LC)-biochemical detection (BCD)-mass spectrometry (MS), a method that allowed for separation of crude extract by HPLC, after which the presence of bioactive compounds was detected by means of an on-line biochemical assay. This method for on-line fractionation and characterisation has extensively been described by Van Elswijk et al. (J Chromatography A (2003) 1020:45-58).
A variety of protein hydrolysates prepared according to example 2 were further investigated for DPP-IV inhibiting activity. Hydrolysed protein samples were analysed for DPP-IV inhibitory activity in a high-resolution screening (HRS) instrument, as discussed in Van Elswijk et al. (supra).
DPP-IV inhibition was monitored via the substrate conversion based bioassay format as disclosed in example 1. In addition to the DPP-IV inhibitory activity data, chemical information was obtained in real-time by allowing part of the HPLC effluent to be directed towards a mass spectrometer. […] The assay conditions applied ensured maximum enzyme activity by applying substrate saturation.

T1 sequence (P22411 whole entry): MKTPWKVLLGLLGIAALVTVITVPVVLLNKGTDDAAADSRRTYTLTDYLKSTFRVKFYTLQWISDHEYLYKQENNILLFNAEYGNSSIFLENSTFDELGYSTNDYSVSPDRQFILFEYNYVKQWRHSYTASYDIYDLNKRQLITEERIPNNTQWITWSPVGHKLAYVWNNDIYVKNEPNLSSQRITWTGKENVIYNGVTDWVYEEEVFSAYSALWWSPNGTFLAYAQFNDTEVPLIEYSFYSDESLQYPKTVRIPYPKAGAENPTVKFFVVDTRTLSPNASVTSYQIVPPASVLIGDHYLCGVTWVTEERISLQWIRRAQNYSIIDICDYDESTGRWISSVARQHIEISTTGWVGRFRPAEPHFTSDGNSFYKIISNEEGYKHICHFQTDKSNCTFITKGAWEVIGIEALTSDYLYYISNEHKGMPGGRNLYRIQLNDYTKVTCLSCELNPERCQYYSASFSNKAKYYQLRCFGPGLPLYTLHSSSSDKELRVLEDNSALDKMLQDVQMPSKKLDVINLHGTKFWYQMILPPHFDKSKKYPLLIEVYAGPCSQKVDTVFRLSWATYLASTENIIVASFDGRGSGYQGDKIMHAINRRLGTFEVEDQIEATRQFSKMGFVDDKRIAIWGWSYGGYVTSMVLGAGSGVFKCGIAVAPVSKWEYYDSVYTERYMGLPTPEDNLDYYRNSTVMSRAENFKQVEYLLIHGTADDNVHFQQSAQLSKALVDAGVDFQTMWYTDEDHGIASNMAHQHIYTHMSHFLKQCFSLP

Compound	DPP-IV inhibiting activity (qualitative)
VTKCCTE	DPP-IV inhibiting compounds

Same assay, conditions: signal relative to the highest signal obtained in this test (LPL and IPI)

Compound	RELATIVE POTENCY [%]
CC[C@H](C)[C@H](N)C(=O)N1CCC[C@H]1C(=O)N[C@H](C(=O)O)[C@@H](C)CC [IPI]	100
GPFP	34
HPIK	6
KVLP	98
LPLP	11
LPVP	15
MPLW	23
PFP	20
PLLQ	37

These compounds were tested against T1, DPP-IV (assay: In vitro DPP-IV inhibition assay with Gly-Pro-p-nitroanilide substrate (absorption at 385 nm)). Conditions: unhydrolysed control proteins, DH 0%.
Assay type: biochemical
Design: purchased Sigma D-7052
Description: DPP-IV activity can be determined by measuring the increase in absorption at 385 nm using Gly-Pro-p-nitroanilide (Sigma G-0513) as DPP-IV substrate. A decrease in DPP-IV activity is a measure for the inhibition.
13.152 mg Gly-Pro-p-nitroanilide (substrate; Sigma G-0513) was dissolved in 1 ml Tris buffer, pH 8.0. DPP-IV (Sigma D-7052) was diluted with Tris buffer, pH 8.0 to 1.1 Unit/ml. The substrate was diluted 50-fold with Tris buffer, pH 8.0. The samples were prepared by diluting a protein hydrolysate to a 1 wt. % protein solution in Tris buffer, pH 8.0. The samples were then serially diluted to obtain a range of sample concentrations. 50 μl of the different serially diluted samples and 50 μl of the diluted substrate were then pipetted in wells of a microtiter plate with 96 wells. Subsequently, 100 μl of the diluted enzyme was pipetted in each well of a plate with 96 wells. Then the increase in absorption at 385 nm was determined and DPP-IV activities at different concentrations of a variety of protein hydrolysates were determined, from which the IC50 (i.e. the concentration of inhibitor (particular protein hydrolysate) that inhibits 50% of the DPP-IV activity) could be derived. […] The degree of hydrolysis was determined using the o-phtaldialdehyde method, which is well known in the art.

Compound	inhibition of the enzyme DPP-IV
Sodium caseinate	did not inhibit
